Experimental data published in the supplement of paper PMC5998384.

Experiments:
[1] = tested on: HeLa Kyoto; assay: solubility in G1/S (NP-40 vs SDS abundance) (log2 ratio); higher = more soluble; details: cell cycle stage: G1/S
[2] = tested on: HeLa Kyoto; assay: solubility change mitosis vs G1/S (difference of NP-40 vs SDS log2 ratios) (log2 ratio difference); higher = more soluble in mitosis
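Wherever solubility change mitosis vs G1/S (difference of NP-40 vs SDS log2 ratios) is given: synchronized HeLa Kyoto cells (double thymidine block for G1/S, nocodazole release for mitosis), protein amounts in NP-40 versus SDS lysates quantified by mass spectrometry, three biological replicates.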
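Wherever solubility in G1/S (NP-40 vs SDS abundance) is given: HeLa Kyoto cells arrested at G1/S by double thymidine block, proteins quantified by TMT10plex mass spectrometry in mild NP-40 versus SDS extracts, three biological replicates.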

| Substance | solubility in G1/S (log2) [1] | solubility change mitosis (log2) [2] |
| --- | --- | --- |
| MPSSTSPDQGDDLENCILRFSDLDLKDMSLINPSSSLKAELDGSTKKKYSFAKKKAFALFVKTKEVPTKRSFECKEKLWKCCRQLFTDQTSIHRHVATQHADEIYHQTASILKQLAVTLSTSKSLSSADEKNPLKECLPHSHDVSAWLPDISCFNPDELISGQGSEEGEVLLYYCYHDLEDPQWICAWQTALCQHLHLTGKIRIAAEGINGTVGGSKLATRLYVEVMLSFPLFKDDLCKDDFKTSKGGAHCFPELRVGVFEEIVPMGISPKKISYKKPGIHLSPGEFHKEVEKFLSQANQEQSDTILLDCRNFYESKIGRFQGCLAPDIRKFSYFPSYVDKNLELFREKRVLMYCTGGIRCERGSAYLKAKGVCKEVFQLKGGIHKYLEEFPDGFYKGKLFVFDERYALSYNSDVVSECSYCGARWDQYKLCSTPQCRQLVLTCPACQGQGFTACCVTCQDKGSRKVSGPMQDSFKEECECTARRPRIPRELLQHVRQPVSPEPGPDADEDGPVLM [TSTD2] | 0.0173 | -0.113 |
| MALRLLRRAARGAAAAALLRLKASLAADIPRLGYSSSSHHKYIPRRAVLYVPGNDEKKIKKIPSLNVDCAVLDCEDGVAANKKNEARLRIVKTLEDIDLGPTEKCVRVNSVSSGLAEEDLETLLQSRVLPSSLMLPKVESPEEIQWFADKFSFHLKGRKLEQPMNLIPFVETAMGLLNFKAVCEETLKVGPQVGLFLDAVVFGGEDFRASIGATSSKETLDILYARQKIVVIAKAFGLQAIDLVYIDFRDGAGLLRQSREGAAMGFTGKQVIHPNQIAVVQEQFSPSPEKIKWAEELIAAFKEHQQLGKGAFTFQGSMIDMPLLKQAQNTVTLATSIKEK [CLYBL] | -0.168 | 0.0246 |
| ATG2A | -0.135 | -0.036 |
| MEEERGSALAAESALEKNVAELTVMDVYDIASLVGHEFERVIDQHGCEAIARLMPKVVRVLEILEVLVSRHHVAPELDELRLELDRLRLERMDRIEKERKHQKELELVEDVWRGEAQDLLSQIAQLQEENKQLMTNLSHKDVNFSEEEFQKHEGMSERERQVMKKLKEVVDKQRDEIRAKDRELGLKNEDVEALQQQQTRLMKINHDLRHRVTVVEAQGKALIEQKVELEADLQTKEQEMGSLRAELGKLRERLQGEHSQNGEEEPETEPVGEESISDAEKVAMDLKDPNRPRFTLQELRDVLHERNELKSKVFLLQEELAYYKSEEMEEENRIPQPPPIAHPRTSPQPESGIKRLFSFFSRDKKRLANTQRNVHIQESFGQWANTHRDDGYTEQGQEALQHL [RILPL1] | 0.246 | -0.0361 |
| MEESMEEEEGGSYEAMMDDQNHNNWEAAVDGFRQPLPPPPPPSSIPAPAREPPGGQLLAVPAVSVDRKGPKEGLPMGPQPPPEANGVIMMLKSCDAAAAVAKAAPAPTASSTININTSTSKFLMNVITIEDYKSTYWPKLDGAIDQLLTQSPGDYIPISYEQIYSCVYKCVCQQHSEQMYSDLIKKITNHLERVSKELQASPPDLYIERFNIALGQYMGALQSIVPLFIYMNKFYIETKLNRDLKDDLIKLFTEHVAEKHIYSLMPLLLEAQSTPFQVTPSTMANIVKGLYTLRPEWVQMAPTLFSKFIPNILPPAVESELSEYAAQDQKFQRELIQNGFTRGDQSRKRAGDELAYNSSSACASSRGYR [CACUL1] | 0.278 | 0.103 |
| MDHTDNELQGTNSSGSLGGLDVRRRIPIKLISKQANKAKPAPRTQRTINRMPAKAPPGDEEGFDYNEEERYDCKGGELFANQRRFPGHLFWDFQINILGEKDDTPVHFCDKCGLPIKIYGRMIPCKHVFCYDCAILHEKKGDKMCPGCSDPVQRIEQCTRGSLFMCSIVQGCKRTYLSQRDLQAHINHRHMRAGKPVTRASLENVHPPIAPPPTEIPERFIMPPDKHHMSHIPPKQHIMMPPPPLQHVPHEHYNQPHEDIRAPPAELSMAPPPPRSVSQETFRISTRKHSNLITVPIQDDSNSGAREPPPPAPAPAHHHPEYQGQPVVSHPHHIMPPQQHYAPPPPPPPPISHPMPHPPQAAGTPHLVYSQAPPPPMTSAPPPITPPPGHIIAQMPPYMNHPPPGPPPPQHGGPPVTAPPPHHYNPNSLPQFTEDQGTLSPPFTQPGGMSPGIWPAPRGPPPPPRLQGPPSQTPLPGPHHPDQTRYRPYYQ [CBLL1] | 0.175 | -0.286 |
| MAGPGSTGGQIGAAALAGGARSKVAPSVDFDHSCSDSVEYLTLNFGPFETVHRWRRLPPCDEFVGARRSKHTVVAYKDAIYVFGGDNGKTMLNDLLRFDVKDCSWCRAFTTGTPPAPRYHHSAVVYGSSMFVFGGYTGDIYSNSNLKNKNDLFEYKFATGQWTEWKIEGRLPVARSAHGATVYSDKLWIFAGYDGNARLNDMWTIGLQDRELTCWEEVAQSGEIPPSCCNFPVAVCRDKMFVFSGQSGAKITNNLFQFEFKDKTWTRIPTEHLLRGSPPPPQRRYGHTMVAFDRHLYVFGGAADNTLPNELHCYDVDFQTWEVVQPSSDSEVGGAEVPERACASEEVPTLTYEERVGFKKSRDVFGLDFGTTSAKQPTQPASELPSGRLFHAAAVISDAMYIFGGTVDNNIRSGEMYRFQFSCYPKCTLHEDYGRLWESRQFCDVEFVLGEKEECVQGHVAIVTARSRWLRRKITQARERLAQKLEQEAAPVPREAPGVAAGGARPPLLHVAIREAEARPFEVLMQFLYTDKIKYPRKGHVEDVLLIMDVYKLALSFQLCRLEQLCRQYIEASVDLQNVLVVCESAARLQLSQLKEHCLNFVVKESHFNQVIMMKEFERLSSPLIVEIVRRKQQPPPRTPLDQPVDIGTSLIQDMKAYLEGAGAEFCDITLLLDGHPRPAHKAILAARSSYFEAMFRSFMPEDGQVNISIGEMVPSRQAFESMLRYIYYGEVNMPPEDSLYLFAAPYYYGFYNNRLQAYCKQNLEMNVTVQNVLQILEAADKTQALDMKRHCLHIIVHQFTKVSKLPTLRSLSQQLLLDIIDSLASHISDKQCAELGADI [LZTR1] | -0.115 | -0.0816 |
| MAAATLTSKLYSLLFRRTSTFALTIIVGVMFFERAFDQGADAIYDHINEGKLWKHIKHKYENK [UQCR10] | -0.233 | 0.0588 |
| MDSSSSSSAAGLGAVDPQLQHFIEVETQKQRFQQLVHQMTELCWEKCMDKPGPKLDSRAEACFVNCVERFIDTSQFILNRLEQTQKSKPVFSESLSD [TIMM8A] | -0.653 | 0.392 |
| MATAPGPAGIAMGSVGSLLERQDFSPEELRAALAGSRGSRQPDGLLRKGLGQREFLSYLHLPKKDSKSTKNTKRAPRNEPADYATLYYREHSRAGDFSKTSLPERGRFDKCRIRPSVFKPTAGNGKGFLSMQSLASHKGQKLWRSNGSLHTLACHPPLSPGPRASQARAQLLHALSLDEGGPEPEPSLSDSSSGGSFGRSPGTGPSPFSSSLGHLNHLGGSLDRASQGPKEAGPPAVLSCLPEPPPPYEFSCSSAEEMGAVLPETCEELKRGLGDEDGSNPFTQVLEERQRLWLAELKRLYVERLHEVTQKAERSERNLQLQLFMAQQEQRRLRKELRAQQGLAPEPRAPGTLPEADPSARPEEEARWEVCQKTAEISLLKQQLREAQAELAQKLAEIFSLKTQLRGSRAQAQAQDAELVRLREAVRSLQEQAPREEAPGSCETDDCKSRGLLGEAGGSEARDSAEQLRAELLQERLRGQEQALRFEQERRTWQEEKERVLRYQREIQGGYMDMYRRNQALEQELRALREPPTPWSPRLESSKI [N4BP3] | 0.203 | 0.334 |
| MVVSKMNKDAQMRAAINQKLIETGERERLKELLRAKLIECGWKDQLKAHCKEVIKEKGLEHVTVDDLVAEITPKGRALVPDSVKKELLQRIRTFLAQHASL [ENY2] | -0.203 | 0.636 |
